According to article PMC7065143, “Substrate Flexibility of the Flavin‐Dependent Dihydropyrrole Oxidases PigB and HapB Involved in Antibiotic Prodigiosin Biosynthesis” (Chembiochem, 2019):

Substrate: CCCCCC1CCN=C1C
Test: purified protein
Format: biochemical, Hahella chejuensis
Settings: MES pH 6.0 10 mM, 30 °C, air, DMSO, racemic substrate 0.1–1.4 mM, HapB 0.457 μM

B1: HapB (Hahella chejuensis KCTC 2396) (protein)
chain: MESQDNSQYAGEAPVFPSKDFECNQGSFDDTDTSPPQHAGDYDVIVVGGGISGLSSAWKLRERKLLVLDQRDRFGGAARLEQRDGLLYASGASCFQLPTGHNEVSHLLQDLDLWNQWRSTAEDTLVIFDTKRLMKGLGEVTAALLKQPKELLKPAVWGLTANLLYSAMSGKPFISAEKKLGDPMFADLFQYLNRFTPDSGKHPAMPWREGCDWTREEMELFDSVSLHDLLFDPATRRSLPQDLIPRHRFGSLVKDAVETTLRVECLAIKDVSAYVGLHFLVGYLYRPLVTFPGGNGYIADRIRQRLMSTGSCKFKAGSRAYSITQNQEGVKVCFQQEGKNYYANANALIWAGAKHAAVSVVDGLPQQQKAAIAEIEHRDYAIAGVYLKKAALANYFGGYVIEGDIGGRYPNSWCRSGVCLAANWKDPSYAGGLGVLTLLKPISGAADQGKLGKADFRNLQQTAYGEVRDMLVATGHSPDLIEDIKLWRWPHGLVVSKVGQMKHDVFVNASQPVGAVFFANQDSVGMGNMESAIWAGCHAAEQVRRHFRSHSSVVSHIGDYAATQS
notes: full-length, N-terminal His6 tag (pQE80-L, pHDB1), E. coli BL21, Ni-NTA; soluble, lacks the N-terminal transmembrane domain of PigB
Q: Which results are given for B1?
A: Km: 220 ± 80 µM; kcat: 0.228 ± 0.02 s⁻¹
